T1: recombinant human interleukin 12 (p40/p35 heterodimer) (human, UniProt P29460 23-328; P29459 23-219)
T1 chain 1: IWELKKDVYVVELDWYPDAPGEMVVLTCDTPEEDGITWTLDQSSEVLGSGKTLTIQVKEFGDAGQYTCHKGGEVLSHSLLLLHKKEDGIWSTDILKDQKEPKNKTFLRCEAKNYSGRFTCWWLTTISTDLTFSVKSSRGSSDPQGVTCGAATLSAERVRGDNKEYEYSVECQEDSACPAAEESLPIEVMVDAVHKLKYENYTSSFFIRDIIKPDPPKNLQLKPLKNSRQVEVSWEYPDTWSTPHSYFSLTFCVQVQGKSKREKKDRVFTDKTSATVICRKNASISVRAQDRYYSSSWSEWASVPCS
T1 chain 2: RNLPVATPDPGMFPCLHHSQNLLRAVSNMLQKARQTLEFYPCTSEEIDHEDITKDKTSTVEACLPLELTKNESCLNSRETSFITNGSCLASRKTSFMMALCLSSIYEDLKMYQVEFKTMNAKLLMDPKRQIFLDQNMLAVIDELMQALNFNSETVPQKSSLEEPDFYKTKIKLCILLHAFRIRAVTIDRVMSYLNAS

T2: recombinant human IL-12 (rhIL-12) (human, UniProt P29459 23-219; P29460 23-328)
T2 chain 1: T1 chain 2
T2 chain 2: T1 chain 1

B1: Y61 H32 E (peptide)
chain: FTFSSEGMH
B2: Y61 H32 S (peptide)
chain: FTFSSSGMH
B3: Y61 H30 E (peptide)
chain: FTFESYGMH
B4: Y61 H33 E (peptide)
chain: FTFSSYEMH
B5: Y61 H33 Y (peptide)
chain: FTFSSYYMH
B6: Y61 H31 T (peptide)
chain: FTFSTYGMH
B7: Y61 H30 N (peptide)
chain: FTFNSYGMH
B8: Y61 H33 M (peptide)
chain: FTFSSYMMH
B9: Y61 H31 R (peptide)
chain: FTFSRYGMH
B10: Y61 H31 E (peptide)
chain: FTFSEYGMH
B11: Y61 H33 I (peptide)
chain: FTFSSYIMH
B12: Y61 H33 C (peptide)
chain: FTFSSYCMH
B13: Y61 H31 H (peptide)
chain: FTFSHYGMH
B14: Y61 H32 V (peptide)
chain: FTFSSVGMH
B15: Y61 H33 V (peptide)
chain: FTFSSYVMH
B16: Y61 H32 A (peptide)
chain: FTFSSAGMH
B17: Y61 H31 Q (peptide)
chain: FTFSQYGMH
B18: Y61 H31 C (peptide)
chain: FTFSCYGMH
B19: Y61 H31 A (peptide)
chain: FTFSAYGMH
B20: Y61 L92 T (peptide)
chain: QSYTRGTHPALL
B21: Y61 L92 F (peptide)
chain: QSYFRGTHPALL
B22: Y61 L93 L (peptide)
chain: QSYDLGTHPALL
B23: Y61 L94 H (peptide)
chain: QSYDRHTHPALL
B24: Y61 L93 T (peptide)
chain: QSYDTGTHPALL
B25: Y61 L94 A (peptide)
chain: QSYDRATHPALL
B26: Y61 L92 L (peptide)
chain: QSYLRGTHPALL
B27: Y61 L94 C (peptide)
chain: QSYDRCTHPALL
B28: Y61 L93 P (peptide)
chain: QSYDPGTHPALL
B29: Y61 L93 W (peptide)
chain: QSYDWGTHPALL
B30: Y61 H97 R (peptide)
chain: HGRHDN
B31: Y61 H96 D (peptide)
chain: HDSHDN
B32: Y61 H95 F (peptide)
chain: FGSHDN
B33: Y61 H97 Y (peptide)
chain: HGYHDN
B34: Y61 H98 F (peptide)
chain: HGSFDN
B35: Y61 H96 M (peptide)
chain: HMSHDN
B36: Y61 H98 A (peptide)
chain: HGSADN
B37: Y61 H96 W (peptide)
chain: HWSHDN
B38: Y61 H98 R (peptide)
chain: HGSRDN
B39: Y61 H96 C (peptide)
chain: HCSHDN
B40: Y61 H95 P (peptide)
chain: PGSHDN
B41: Y61 H97 N (peptide)
chain: HGNHDN
B42: Y61 H96 L (peptide)
chain: HLSHDN
B43: Y61 H95 K (peptide)
chain: KGSHDN
B44: Y61 H95 L (peptide)
chain: LGSHDN
B45: Y61 H96 I (peptide)
chain: HISHDN
B46: Y61 H96 V (peptide)
chain: HVSHDN
B47: Y61 H101 Y (peptide)
chain: HGSHYN
B48: Y61 H95 A (peptide)
chain: AGSHDN
B49: Y61 H95 Q (peptide)
chain: QGSHDN
B50: Y61 H97 G (peptide)
chain: HGGHDN
B51: Y61 H97 A (peptide)
chain: HGAHDN
B52: Y61 H96 P (peptide)
chain: HPSHDN
B53: Y61 H101 R (peptide)
chain: HGSHRN
B54: Y61 H98 L (peptide)
chain: HGSLDN
B55: Y61 H95 E (peptide)
chain: EGSHDN
B56: Y61 H96 R (peptide)
chain: HRSHDN
B57: Y61 H101 S (peptide)
chain: HGSHSN
B58: Y61 H95 T (peptide)
chain: TGSHDN
B59: Y61 H98 T (peptide)
chain: HGSTDN
B60: Y61 H98 V (peptide)
chain: HGSVDN
B61: Y61 H97 H (peptide)
chain: HGHHDN
B62: Y61 H97 P (peptide)
chain: HGPHDN
B63: Y61 H97 D (peptide)
chain: HGDHDN
B64: Y61 H97 W (peptide)
chain: HGWHDN
B65: Y61 H96 H (peptide)
chain: HHSHDN
B66: Y61 H98 I (peptide)
chain: HGSIDN
B67: Y61 H97 F (peptide)
chain: HGFHDN
B68: Y61 H96 T (peptide)
chain: HTSHDN
B69: Y61 H97 T (peptide)
chain: HGTHDN
B70: Y61 H95 S (peptide)
chain: SGSHDN
B71: Y61 H101 H (peptide)
chain: HGSHHN
B72: Y61 H97 I (peptide)
chain: HGIHDN

Biological target: T1, recombinant human interleukin 12 …
Assay: BIAcore
Binder B1 has a koff of 0.00229 s⁻¹. With B2 the koff was 0.00158 s⁻¹. In the case of B3, the koff is reported as 0.000228 s⁻¹. With B4 the koff was 0.00189 s⁻¹. Binder B5 has a koff of 0.0025 s⁻¹. With B6 the koff was 0.000716 s⁻¹. B7 gave a koff of 0.000301 s⁻¹. Work on B8 yielded a koff of 0.000215 s⁻¹. B9 showed a koff of 0.000664 s⁻¹. Work on B10 yielded a koff of 0.000219 s⁻¹. Binder B11 has a koff of 0.0025 s⁻¹. With B12 the koff was 0.00286 s⁻¹. Binder B13 has a koff of 0.000309 s⁻¹. B14 was tested, and the koff was 0.00134 s⁻¹. B15 was tested, and the koff was 0.00191 s⁻¹. B16 showed a koff of 0.00166 s⁻¹. In the case of B17, the koff is reported as 0.000152 s⁻¹. In the case of B18, the koff is reported as 0.00012 s⁻¹. In the case of B19, the koff is reported as 0.000205 s⁻¹.

Biological target: T2, recombinant human IL-12 (rhIL-12)
Assay: BIAcore
B20 was tested, and the koff was 0.000408 s⁻¹. With B21 the koff was 0.000449 s⁻¹. For B22, the koff was 0.0003 s⁻¹. B23 was tested, and the koff was 0.000187 s⁻¹. B24 showed a koff of 0.000316 s⁻¹. B25 was tested, and the koff was 0.000526 s⁻¹. For B26, the koff was 0.000728 s⁻¹. Work on B27 yielded a koff of 0.00052 s⁻¹. B28 showed a koff of 0.000349 s⁻¹. With B29 the koff was 0.000349 s⁻¹.

Biological target: T1, recombinant human interleukin 12 …
Assay: BIAcore
Remark: another data set of the same source
With B30 the koff was 0.00224 s⁻¹. With B31 the koff was 0.00224 s⁻¹. B32 showed a koff of 0.00514 s⁻¹. B33 gave a koff of 0.00273 s⁻¹. With B34 the koff was 0.000688 s⁻¹. B35 gave a koff of 0.00204 s⁻¹. B36 gave a koff of 0.000673 s⁻¹. Binder B37 has a koff of 0.00197 s⁻¹. B38 was tested, and the koff was 0.00034 s⁻¹. For B39, the koff was 0.000242 s⁻¹. B40 showed a koff of 0.00471 s⁻¹. B41 gave a koff of 0.00221 s⁻¹. In the case of B42, the koff is reported as 0.00261 s⁻¹. B43 was tested, and the koff was 0.00228 s⁻¹. B44 showed a koff of 0.00147 s⁻¹. With B45 the koff was 0.00208 s⁻¹. Work on B46 yielded a koff of 0.000382 s⁻¹. With B47 the koff was 0.00465 s⁻¹. B48 showed a koff of 0.0015 s⁻¹. Work on B49 yielded a koff of 0.000859 s⁻¹. In the case of B50, the koff is reported as 0.00229 s⁻¹. With B51 the koff was 0.00143 s⁻¹. In the case of B52, the koff is reported as 0.00129 s⁻¹. Work on B53 yielded a koff of 0.0011 s⁻¹. Binder B54 has a koff of 0.000598 s⁻¹. Binder B55 has a koff of 0.00231 s⁻¹. For B56, the koff was 0.000962 s⁻¹. For B57, the koff was 0.000449 s⁻¹. Binder B58 has a koff of 0.00202 s⁻¹. B59 showed a koff of 0.000227 s⁻¹. B60 showed a koff of 0.000293 s⁻¹. B61 gave a koff of 0.00191 s⁻¹. Work on B62 yielded a koff of 0.003 s⁻¹. With B63 the koff was 0.00202 s⁻¹. Binder B64 has a koff of 0.00239 s⁻¹. Work on B65 yielded a koff of 0.000237 s⁻¹. Work on B66 yielded a koff of 0.000343 s⁻¹. Work on B67 yielded a koff of 0.0018 s⁻¹. Work on B68 yielded a koff of 0.00186 s⁻¹. B69 showed a koff of 0.000588 s⁻¹. With B70 the koff was 0.00193 s⁻¹. For B71, the koff was 0.00327 s⁻¹. With B72 the koff was 0.00208 s⁻¹.

Source: patent publication US20110123544A1 (published 2011)
